Test results taken from US20230279047A1.

Tests used:
[1] = biological target: human polyclonal IgG (Gammanorm) (human); test: DBC column, 6 min residence; ligand […] on agarose beads
[2] = biological target: human polyclonal IgG (Gammanorm) (human); test: DBC column, 6 min residence; ligand 7.0 mg/ml on agarose beads
[3] = biological target: human polyclonal IgG (Gammanorm) (human); test: DBC column, 6 min residence; ligand 10.8 mg/ml on agarose beads
[4] = biological target: human polyclonal IgG (Gammanorm) (human); test: DBC column, 6 min residence; ligand 7.2 mg/ml on agarose beads
[5] = biological target: human polyclonal IgG (Gammanorm) (human); test: DBC column, 6 min residence; ligand […] on agarose beads; remark: listed apart in the source
IgG1 monoclonal antibody = test: SPR (Biacore), ligand amine-coupled on CM5 chip, IgG1 mAb as probe
[6] = biological target: human polyclonal IgG (Gammanorm) (human); test: DBC column, 6 min residence; ligand 9.7 mg/ml on agarose beads
[7] = biological target: human polyclonal IgG (Gammanorm) (human); test: as above; remark: listed apart in the source

Substance: Zvar(Q9A,N11E,N28A,N43A)4 (designed binder)
- Initial IgG capacity Qb10 [1]: 50 mg/mL
- Initial IgG capacity Qb10 [2]: 49.1 mg/mL

Substance: Zvar(Q9A,N11K,H18K,D37E,A42R)4 (designed binder)
- Initial IgG capacity Qb10 [3]: 56.9 mg/mL

Substance: Zvar(Q9A,N11E,Q40V,A42K,N43A,L44I)4 (designed binder)
- Initial IgG capacity Qb10 [1]: 56.3 mg/mL
- Initial IgG capacity Qb10 [4]: 49 mg/mL
- Initial IgG capacity Qb10 [5]: 60.3 mg/mL

Substance: Zvar(Q9A,N11E,Q40V,A42K,N43A,L44I)1 (designed binder)
- Kd (IgG1 monoclonal antibody): 1.07 nM
- koff (IgG1 monoclonal antibody): 0.000437 s⁻¹
- kon (IgG1 monoclonal antibody): 410000 M⁻¹ s⁻¹

Substance: Zvar(N11K,H18K,S33K,D37E,A42R,N43A,L44I,K50R,L51Y)4 (designed binder)
- Initial IgG capacity Qb10 [6]: 56.3 mg/mL
- Initial IgG capacity Qb10 [7]: 62.1 mg/mL
